Data from article doi:10.1101/2023.08.11.552966 (bioRxiv, 2023).

Tests used:
cross-linking = molecular target: the molecule itself; assay: cross-linking
RAD51 WT = RAD51 WT (Homo sapiens, UniProt Q06609 1-339); assay: BLI

Binder	binding result (cross-linking)	Kd (RAD51 WT)
His-tagged RAD51 S97A (non phosphorylable mutant) (natural protein) MAMQMQLEANADTSVEEESFGPQPISRLEQCGINANDVKKLEEAGFHTVEAVAYAPKKELINIKGISEAKADKILAEAAKLVPMGFTTATEFHQRRAEIIQITTGSKELDKLLQGGIETGSITEMFGEFRTGKTQICHTLAVTCQLPIDRGGGEGKAMYIDTEGTFRPERLLAVAERYGLSGSDVLDNVAYARAFNTDHQTQLLYQASAMMVESRYALLIVDSATALYRTDYSGRGELSARQMHLARFLRMLLRLADEFGVAVVITNQVVAQVDGAAMFAADPKKPIGGNIIAHASTTRLYLRKGRGETRICKIYDSPCLPEAEAMFAINADGVGDAKD	binds	
His-tagged RAD51 S97D (phosphomimetic mutant) (natural protein) MAMQMQLEANADTSVEEESFGPQPISRLEQCGINANDVKKLEEAGFHTVEAVAYAPKKELINIKGISEAKADKILAEAAKLVPMGFTTATEFHQRRDEIIQITTGSKELDKLLQGGIETGSITEMFGEFRTGKTQICHTLAVTCQLPIDRGGGEGKAMYIDTEGTFRPERLLAVAERYGLSGSDVLDNVAYARAFNTDHQTQLLYQASAMMVESRYALLIVDSATALYRTDYSGRGELSARQMHLARFLRMLLRLADEFGVAVVITNQVVAQVDGAAMFAADPKKPIGGNIIAHASTTRLYLRKGRGETRICKIYDSPCLPEAEAMFAINADGVGDAKD	binds	
TCCTTTTGATAAGAGGTCATTTTTGCGGATGGC (ssDNA) [33m DNA]		3.84 µM
GCCAUCCGCAAAAAUGACCUCUUAUCAAAAGGA (ssRNA) [33m RNA]		0.53 µM
